± gives the uncertainty stated by the source.
Test: amyloid nucleation score (Sup35N fusion, yeast selection) (log enrichment); library NNK2; higher = more nucleation; inactive = no reads after selection
Outline: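 The nucleation score is the log enrichment of output over input reads, calculated with DiMSum and centred on the mode score of non-aggregating sequences. Sequences with under 100 input reads were excluded. Reads came from Illumina sequencing of plasmid inserts from psi-negative yeast expressing Sup35N fused to peptides of 20 random codons, induced 24 hours with 100 μM copper sulfate and grown 7 days at 30°C without adenine and uracil.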

| Substance | amyloid nucleation score |
| --- | --- |
| IFPLDQLQIFWLSLTMTMQL | -0.829 ± 1.1 |
| VMNHSQL | 3.92 ± 0.051 |
| YSMWGYCISPNKHVYFTHGR | -0.421 ± 0.78 |
| LSFKRDELVNLNRFSVQFAQ | -0.694 ± 0.38 |
| RLIIPIQSCLWGGWYRTGET | 8.106 ± 0.054 |
| SQNETFFKMCVELN | 0.165 ± 0.54 |
| HWSFS | 2.85 ± 0.17 |
| TCDCIIARFDALTSISRLAL | 1.02 ± 0.41 |
| LSHSDVKRALKWNCFPIGVC | -0.158 ± 0.28 |
| DRIQDQRIGYVVEFSIEKVS | -0.742 ± 0.28 |
| RYSRFSDQSMFSRPYA | 0.333 ± 0.31 |
| MLVMTMLWKMFSVAG | 0.432 ± 0.26 |
| GLSWPTNRCRRALMESTSAP | inactive |
| TSLKYSVENTVASPVDRTWL | -0.055 ± 1.1 |
| CKTHPKKNSGFWRKLKGCLG | 3.17 ± 0.15 |
| VFWGILMRGVRRTFSDCAGT | -1.47 ± 0.75 |
| SSVVFCSNPGVYGSSRWTSV | 0.492 ± 0.41 |
| NMSCKFSNPWNWFD | -0.11 ± 0.39 |
| LYVRRYNWSHVGFHFCGLDT | -0.384 ± 0.79 |
| LVTLFESGFFRRLTSMDGLF | 0.115 ± 0.51 |
| GYEWSSVSEQGC | 1.27 ± 0.52 |
| MYTAMSDSPFNVWRYGMSSY | -0.382 ± 0.29 |
| WRFWLPAKWISRGSFIVYWI | -0.717 ± 0.32 |

| Substance | amyloid nucleation score |
| --- | --- |
| NFSTGEGMYRNYNWDSQVRV | inactive |
| ANPWDRSFIVKVCRSDVVRV | 0.246 ± 0.38 |
| SAIKYIGILAMRDQDQASQI | -1.59 ± 0.62 |
| VIQIVNFSDNIMTCLHNHLQ | 5.64 ± 0.086 |
| TLFGHFSYFQD | -0.124 ± 0.65 |
| TIFHLRDSYINHAKLSSLHG | inactive |
| NTLEPWMKYSMCLFDKISPT | -0.391 ± 0.49 |
| CFLVDFHVARSVDSYVELGS | -0.436 ± 1.1 |
| VGRNYLWYRTMPDIYCQVCG | 1.62 ± 0.077 |
| SSRYPVIWESFVPNWTNSHF | -1.22 ± 1.1 |
| RVSRRCVYWRRQGHWAIFGQ | 0.098 ± 1 |
| DSSCFIIRLHSEFMLGSRSF | -0.715 ± 0.79 |
| WLYNMTRLHIPFYARNWLNS | 0.352 ± 0.37 |
| VMKFMWKMMLNRERAPYHVL | -0.784 ± 0.49 |
| VGLNYNAMAHTSRGSF | 0.236 ± 0.38 |
| LGCEDIHKEYSLHFSIWMQM | 0.975 ± 0.18 |
| RNPNVEVCRKQFRVGCSLAN | -0.931 ± 0.39 |
| AEYKRGKEGSPLAIWWQLDP | 2.34 ± 0.13 |
| MVYRSDAGCSPVVTKK | 0.259 ± 0.5 |
| LFRYQRPLYGVRRTSTKVMA | 0.226 ± 0.37 |
| PWYGSQGNTKSCYSFVMSLP | 0.06 ± 0.34 |
| GKDCSRVNKHWCQRGRQGMV | 0.922 ± 0.58 |
| LPGLIGS | 1.96 ± 0.26 |

| Substance | amyloid nucleation score |
| --- | --- |
| CVNSLALGRVSIVGISSGWW | 0.284 ± 0.51 |
| ASWIAGYITMHTISSFP | 0.056 ± 0.36 |
| EGNNCW | 0.22 ± 0.23 |
| RIEIRQSLEDRLRAVSMAET | 1.64 ± 0.3 |
| VRFIAR | inactive |
| YGRSTHPGSRSF | -1.25 ± 0.63 |
| GWMCMPAQGAKDNHLLGYLM | -0.533 ± 0.55 |
| NTATSN | -0.22 ± 1.1 |
| ANSPVGHEPGFECKSGFRET | 0.168 ± 0.57 |
| HDQGSTMFCGRNAATLSQCW | 1.54 ± 0.25 |
| FDHHRGGNTLMQGDLLVMDF | 0.925 ± 0.67 |
| FNCGASKNSLKNEGKW | -0.925 ± 0.63 |
| TATETFAF | -0.28 ± 0.28 |
| GEAMSMTEQMTLTRYNYFMY | inactive |
| YMYFRVFDS | 0.525 ± 0.34 |
| YGKGDLGRCSLDTSTTLSDW | 0.252 ± 0.65 |
| RVMMLEGQASNMAYEEL | 0.274 ± 1.1 |
| LMFARTMRSVRRFFYVGFHH | inactive |
| SLYFVWSCLLGILKVMPTFN | -1.18 ± 0.64 |
| VNEIWYDLDYEKVGFV | 2.81 ± 0.074 |
| TDCIWFHYLVTLWFLIRRCP | 0.741 ± 0.66 |
| GSLDWRMELWWKFFLHHQPL | 0.759 ± 0.74 |
| QMIWKIVCING | 4.55 ± 0.097 |

Source: the supplement of paper PMC12042874
